The values below come from paper PMC10099716, “A De Novo Sequence Variant in Barrier-to-Autointegration Factor Is Associated with Dominant Motor Neuronopathy”.

Data set [1] deals with Barrier-to-autointegration factor Gly16Arg variant (BAF Gly16Arg), all cysteines replaced with alanines (human) (UniProt O75531). Nature of the data set: SEC; gel filtration of purified, refolded BAF on a Superdex 200 pg HiLoad 16/600 column; elution profiles of WT and Gly16Arg compared. For orientation: Size exclusion chromatography separates by hydrodynamic size, large species first.

For data set [2] the target is unchanged. Briefly: ITC; VP-ITC; 10-20 µM monomeric BAF (WT or Gly16Arg) in the cell, 100 µM lamin A/C IgFold domain in the syringe; 50 mM Hepes pH 7.4, 150 mM NaCl; 288 K; duplicate, mean values; stoichiometry set to 0.5 (one IgFold domain for each BAF dimer assumed). (In general: In ITC the heat of successive injections is recorded.)
For data set [3], the target named is Barrier-to-autointegration factor wild type (BAF WT), all cysteines replaced with alanines (human) (UniProt O75531). Described as above.
The target in data set [4] is T1, BAF WT (Cys-to-Ala background) (Homo sapiens, UniProt O75531 1-89, C67A;C77A;C80A;C85A).
T1 sequence: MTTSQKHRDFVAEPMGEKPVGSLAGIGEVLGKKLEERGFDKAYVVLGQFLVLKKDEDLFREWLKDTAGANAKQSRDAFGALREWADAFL
Nature of the data set: ITC; unphosphorylated; 288 K; mean of 2; ITC: 50 mM Hepes pH 7.4, 150 mM NaCl, 288 K; 10-20 uM BAF monomer in cell, 31-33 uM dsDNA in syringe. The settings on record: protein: recombinant; tags: His8-TEV, cleaved; chain copies: 2.

For data set [5], the target named is T2, BAF Gly16Arg (Cys-to-Ala background) (Homo sapiens, UniProt O75531 1-89, G16R;C67A;C77A;C80A;C85A).
T2 sequence: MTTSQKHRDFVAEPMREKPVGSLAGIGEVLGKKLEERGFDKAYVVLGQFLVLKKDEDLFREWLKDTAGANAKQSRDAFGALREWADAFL
Described as above. The settings on record: protein: recombinant; tags: His8-TEV, cleaved; chain copies: 2.

“Barrier-to-autointegration factor Gly16Arg variant (BAF Gly16Arg), all cysteines replaced with alanines (from UniProt O75531 1-89) (natural protein)” yielded a stoichiometry N in data set [1] of 2.
Regarding “lamin A/C IgFold domain (human lamin A/C residues 411 to 566) (from UniProt P02545 411-566) (domain or fragment)”, the Kd is 9000 nM in data set [2] and 2700 nM in data set [3].

B1: 22-nt dsDNA (dsDNA)
DNA 1: CTAGGGTTAGGGTTAGGGTTAG
DNA 2: CTAACCCTAACCCTAACCCTAG
For the molecule B1, the Kd in data set [4] was determined as 117 ± 58 nM; in data set [5] it was 16.3 ± 5.7 nM.

For orientation: stoichiometry N means a count of units in the complex or per binding partner. In general, Kd refers to the constant that tells how readily two partners part at equilibrium.
